Data on 22 sequences can be found in a protein production outcome set (Wang et al. 2014).

The data set can be described thus: label from the status in PepcDB records.
With “MFRTALRNVFAHKARLLMTVLAVMLGVAFVSGTLVFADTLSNAFRNQSAKSYQDVAVAVTSYADSDNPKDEYALSDEVLDRISAVDGVAGVYGRVEGFAGVADPDGKLIGVGWSNKGSNFAPGKDGKDAAYTFTDGSGPVKDDQIALDEDSAGKGEYQVGDRVRVATNGPVKEYTLSGVFTTEDGAVNAGGSLVLFDTAVAQKQYLRPGYFESATVAAAPGADDARILKAVEPLLPDTAEAQTGRALADEQADQIEQGMGNLKQVLLGFAGIALFVGIFLISNTFTMLVAQRTKEIALMRAVGASRRQITRSVLAEAALVGLVASAVGFALGVGLAVGLRSGMAAFDMKMPAGPLVLSATPVVAAFAVGVLITVFAAWLPGRRAAKIPPVAAMNS”, the protein production entry is reported as “failed”. On to “MGTYVEPSKLSYGEYLESWFNTKRHSVGIQTAKVLKGYLNSRIIPSLGNIKLAKLTSLHMQNYVNSLRDEGLKRGTIEKIIKVIRNSLEHAIDLELITKNVAAKTKLPKADKEELEHHHHHH”, for which the protein production result was “failed”. Consider “MNPFTYSKPTDITAAVNLSGPATRFIAGGTNLLDLMKENVATPEHLIDITGLPLREVSETASGGLMIGALVSNADLAYHPLIEARYPLLSKAVLAGASPQLRNMASTGGNLLQRTRCYYFYDTGVPCNKREPGSGCPAREGLNRIHAILGASDECVATHPSDMCVALAALEAVVHVEGRAGRRTIEFADFHRLPGDAPQRDNQLADDELIIAVELPAQGFASHNAYLKIRDRASYAFALISVAAAIDLDGDVVRDVRLALGGVAHKPWRDKAVEALLIGKPVTREHFAAAADAMLEDAKPLEHNGFKVRLARRAIIRALSDAATGGSAL”, for which the protein production entry is reported as “not failed”. With “MPSLCKLNPCIQTHKEVIMDNLITQLLFSASITGPICVMLLLGVLLKRIHLINDNFIEVASKLVFQVTLPAMLFLSIVNAKHDFSSSSHLIIYGLIANFVFFLFTIYSTRFAFKNKQNHGVIIQGGFRANTAIIALAYVANAYGNTGVALAAIYVASTTILYNIQAVIALTPKNENNKKQAVGIIIKTLTKNPLIISIVLGIICSLLSIPVPGMLSQAGQYFANMTLPLALLCAGGSLNLHSMKEESAATWFATSYKLILSPLFITSGGILVGFRGLELGLIFFMSAAPTAAASYVMARAMGGNAILAANIIAQTTVASLFTCTLGIFVLSSFNLI”, the protein production result is “failed”. Under “MRWRHPSALRKADERGRRTPCVVSATSLAVGRIALALLLVVLNGFFVAAEFAFVRLRSASVETLVQDGRRGATAVKEATDNLDDYLAVSQLGITIASLGLGWVGEPAVAVLVDPLLEPVLPAPVRHTVTVALGFGIVTLLHVVYGELAPKTIAIQRAERVALVVAPVMKLFYYVFLPGTILFNGIATRSVQLIGVSPETEGHDTHTEPEILSVLSEASAAGRISPAEVSMIEHVFSLDDTTVREIMRPRPDVTSVSADTPLPELRTMAASGEYTRYPVTEGPDDDVIGFVDVKDILRASDAIDESGDVTARELSRPVVVVPETLRVDELLAEFQAEHRQMAVVIDEWGAFEGLATIEDALEVIVGDIRDQFDLATHAQSIEPRDDGGYEVPGAVSITELNDHLGTDFENEAVETVAGLVVSRLGHAPTVGDRAVIDTHTFRVTGVDGARITSLTVTPDS” stands “failed”; under “MQRIRIIDSHTGGEPTRLVIGGFPDLGQGDMAERRRLLGERHDAWRAACILEPRGSDVLVGALLCAPVDPEACAGVIFFNNSGYLGMCGHGTIGLVASLAHLGRIGPGVHRIETPVGEVEATLHEDGSVSVRNVPAYRYRRQVSVEVPGIGRVSGDIAWGGNWFFLVAGHGQRLAGDNLDALTAYTVAVQQALDDQDIRGEDGGAIDHIELFADDPHADSRNFVLCPGKAYDRSPCGTGTSAKLACLAADGKLLPGQPWRQASVIGSQFEGRYEWLDGQPGGPIVPTIRGRAHVSAEATLLLADDDPFAWGIRR”, “not failed”; under “MSGTRHQIVVALGDTRYRVDRPFGTWPQTAGKVSDVVVLRDGRVLVLLRSDPYVDPDGPRVIVLSCDGDYLGAWGDLDIADAHLMTPAPDGRLFIVDRDMHEIIVFSADGQRVGGIGTRGAPGTPFNHPTDVAFAPSGDFYVSDGYAGWHVHRFAGDGTHLATWGAFGSGRGEFLEPHSLWCLPDGRVVVVDRCNNRLQVFDADGVFLDEWTGFHRAVGIWGDDAGDIFVSDQVPSLHRISQNGTRLGRARPVLNGAHGIFGSPDGTIYLAEANPSRVSRLTPL”, “failed”.

For the sequence “MGVFLDKSIKDVVDGLNVRYFLPDIQREYVWLKKADEKKIEQLFDSILRGYPIGSFLFWKLQKEDIAKSDEQDSDKLNFQLYQFITNYDVRKPHNEKIRIEQINRDDLYIVANSV”, the protein production result is “failed”.

Take “MHFNLPTYLTLLRIVLIPVLTVAFYLPWSGAHVVSGVIFAIAAITDWLDGYLARRMGLATRFGAFLDPVADKLMVAVALVLIVQAEPRPLIALASAIIIGREITIASLREWMAEIGQRKRVEVSALGKWKTTFQMLAITLLLLGLDIPHGGVKTTGELLLVVSATLTLWSMIVYLQAAMPVFKAGAEAE”: the protein production entry is recorded as “not failed”. Take “MNKKILLIGGGGHCKSVLDSLLDLDEYDDIGIIDTKENVGKAVLGTPILGYDRDLPSLYKDGYHYAFVAVGSIGNPSVRIRLFNTLCEMGFIIPNIVDASAKVSKHSQIDKGVFIGKHVVVNAGAVIGQGAIINSGAIVEHDCEIGEFVHIAPGTVLCGGVKIGRHSHIGTNSTVKQGIHIGSNCLIGMGSVVTKNIRDNVIAYGNPCREVKNLLEHHHHHH”: the protein production result is listed as “failed”. For the sequence “NRFIGYIQVACCCLLLCASCVRDGMDEDCNSYVRFVYDYNLEYIDLFHKQATKMNLYVFDEKGVFVTELKEESGAFAPDYLMTLPGAMAGRRYIFVAWSGLYGESYDKVTLTPGVSTLEDLEVSVNNLKTRIGGGVVDRELHLLWHGKQTEVSPQYNNDITTVSLLKNTKKFRIIMQMLDDSSIHVDDYDFRIISPNGRYNHENGLLGDETDEKVEYTAYHTEDDPETGAIAELNTLRLMTDTENRLVITHKSSGNVILDIPLNKYLNALRLQQYADIPLQEYLDRADKHGIILFFKGMDGNGNYISVDVQINGWLIRKQEVD”, the protein production entry was “not failed”. In the case of “ITKRNVELRVDDSLMRVYVASPKPVGVYPGIVFYSDIYQLGSPIIRLANYLAGFGYVVAAPEIFHRLEPIGLVIEPDDLGRMRGNDNARRTAIAEYDADSRAVIDFLKAETTVNANK”, the protein production result is listed as “failed”. The result for “MWDVIVVGGGPSGLSAALFLARAGLKVLVLDGGRSKVKGVSRVPNYPGLLDEPSGEELLRRLEAHARRYGAEVRPGVVKGVRDMGGVFEVETEEGVEKAERLLLCTHKDPTLPSLLGLTRRGAYIDTDEGGRTSYPRVYAAGVARGKVPGHAIISAGDGAYVAVHLVSDLRGEPYKDHAL” reads “not failed”; that for “MAARRFTGDELAALLPHAGDAFFLRDAEVDGWRASGGASWRSDHPHLRGHFPGEPIVPGVYLLEAAAQLAGVAIRCGAEDWTPETLGVLAGVRKSYFHRFVRPGERVDYALDVKPAPGSAMYAVSGLGKVDGDKVLTVELTIAGVRRLEHHHHHH”, “failed”. For the sequence “AESESFVLDFSQPSADYLDFRNRLQADHVCLENCVLKDKAIAGTVKVQNLAFEKTVKIRMTFDTWKSYTDFPCQYVKDTYAGSDRDTFSFDISLPEKIQSYERMEFAVYYECNGQTYWDSNRGKNYRIIRAELKSTQGMTKPHSGPDLG”, the protein production entry is “not failed”.

As for “MLLSPNLLAEGQSRYISDNVFLYLLNGPGTDYRILGSIEAGQPITLQGETQGDYSKIVDHKGREGWVQTNLISSTPSFREQVSTLTNELNEAKAKLAEVLNSTGNQTDEVAELKAQLAEAQTMLAKANQERENLKMAVDHSAQETQFALWREGGIIAAAGLVVGVILVYLPRPQRRNKKRWMLEHHHHHH”, the protein production result was “failed”. For “MIKYLIEKEFKQLLRNSFLPRLIFIFPCMIMLLMPWAANLEIKNIRMNIIDNDHSVISRRLVDKITASTYFQTTALPDSYEKGMEAIEAGTADLLLEIPRGFEKDWVNGGAANVLLAVNAVNGTKGGLGSSYLSAIVNDYGEELRTESGTTSFSADGNLPRIDILTQNLFNARLDYKLFMVPALMVMLLTMLCGFLPALNIVGEKEAGTIEQINVTPVGKFTFILAKLIPYWLIGFVVLTLCFVLAWTLYGIFPVGHFWVIYCFSIVFVLAVSGLGLVISNHSATMQQAMFVMWFCMLILILMSGLFTPIRSMPEWAQWITMLNPLKYFMQVMRMVYLKGSGFIDLLPQLGALLAFALLFNVWAVKSYRKSG”, the protein production result is given as “failed”. For the sequence “MPSGQEGLDKFHNLNKGKTMFMQRLITTLILVPLVLLAIFYAPSWILWGVVLVILLLAGMECFKLIPVDNLTVQACFLIFLLMCFWACGYFYSYWLSVGLLVWLLNGLAILTYPRSQNYWGYPIVVAIASLILLPLFTQSLMQISFLQQGKELLVYLLFLIWASDIGAYLTGKQWGKHKLIPKVSPGKSWEGVTGGVILAMIVATLGYYYFIPYSIYIWFGLALSTVVISIFGDLFISILKRRCQLKDTGNIIPGHGGILDRLDSLIAALPWFYFGLTYIPLGI”, the protein production result is given as “failed”. “MEFHLPSVPMRKILSYLDAFSLLQIAQVNKRWNTFASTDVLWRKFCLKRWFFYEVVTLELLGTESWKQFFVCRTRQERAKSRAKPEDFTYKEIPVEIGAPRNAYYISGCGLTRDGQGKSVICVVTSMNTISTWDLHKGAVTWVSPVQPSYIKILATLPEMHIAVTVDIESTIKLWDCHNREALATNNMLSSCQSLKAVFTKDGPVVLAGDTSGNLLIFRIPDLHLISRVHVFQYGINELYCSPQKKWVFLSKKHSQILPKVFFMSSLLRTSEFSAPASTILSFPLCQRAFWTPRREDRITLMSIKGSKKITTFVTFDIKLEKEEIGNKIRVKEYAIANFSLKKFEDTLEWMGVSDKNVIVCSTGSSLLIYSITGLHLQTFPYGPGEILRLSVDPLHVIVTFIDGSLELFAWEERSPLLRRCYRLYNKRHMLHRRFVNKTLCDDVSIVRVMTNVPSSSFLMVYTLNNGS”: the protein production result is “failed”.

Regarding “MDKNIIIGAMTALITPFKNGKVDEQSYARLIKRQIENGIDAVVPVGTTGESATLTHEEHRTCIEIAVETCKGTKVKVLAGAGSNATHEAVGLAKFAKEHGADGILSVAPYYNKPTQQGLYEHYKAIAQSVDIPVLLYNVPGRTGCEISTDTIIKLFRDCENIYGVKEASGNIDKCVDLLAHEPRMMLISGEDAINYPILSNGGKGVISVTSNLLPDMISALTHFALDENYKEAKKINDELYNINKILFCESNPIPIKTAMYLAGLIESLEFRLPLCSPSKENFAKIEEVMKKYKIKGF”, the protein production entry is recorded as “not failed”. “MHLRLSTLAGFKTGPRFQSSMSEAESESRAGREEVWIEKYRPQTLDDVMGHENIVGRLKSYVSRNDLSHMLFSGPAGTGKTTCATAIARELYGDDWREHFLELNASDERGIDVVRDRIKNFARTSFGGVEYRIIFLDEADALTSDAQSALRRTMEQFSNNVRFILSCNYSSQIIDPIQSRCAVFRFSPLADDAVAEEIRTIAAEEDIELTEDGLDALVYAADGDMRKAINGLQAASVSGDTVDESAVYAITSTARPEEIRTMVQSALDGDFTASRATLDRLLTEEGIAGGDIIDQLHRSIWEFDIDDDAAVRVLERIGETDYRITRGANERVQLEAMLASLAQGE”: the protein production entry is reported as “failed”. On to “MPTPFDVTILGGGLAGRLCAWQLAQTGVPPARIAVVERGARDGSGSAAYVAAAMLAPLAEAAVADRFVVELGLASLTLWRDWLPMLRTPVFFQQAGTLVVWHPADRGEASLFANHVRAATPPERIAADLRAVDAEGIGTLEPALAQRFSQGLYLAGEGQLDNRAVLDALATELEALGVQLRWNTAVADPHPQALAAAGLGARLVLDCRGLGAQPQWPQLRGLRGEVARIHAPDVTLTRPVRMLHPRYPIYIAPKPGHVYVIGATEIESDDMSPVSVRSTLELLSAAYAVHPAFGEARVLELCTQCRPTLPDHRPAIRWDGAGTLSVNGLYRHGYMIAPAVAQAAVAAAHALLDGRAIDAPASAWPGLFAAPASPEPVLPLEHHHHHH”, for which the protein production result is recorded as “not failed”.
